Experimental data from patent US10428140B2, “Anti-EphA4 antibody” (EISAI R&D MANAGEMENT CO., LTD., priority 2015, dated 2019).
Positions count from the first letter of the chain named.

T1: human EphA1 (Homo sapiens, UniProt P21709)
T1 construct: a protein of the extracellular region of each human Eph receptor fused with the SEAP protein and the His tag; made in house; host or cells: Expi293F cells (culture supernatant)
T1 sequence (P21709 26-547 limits assumed): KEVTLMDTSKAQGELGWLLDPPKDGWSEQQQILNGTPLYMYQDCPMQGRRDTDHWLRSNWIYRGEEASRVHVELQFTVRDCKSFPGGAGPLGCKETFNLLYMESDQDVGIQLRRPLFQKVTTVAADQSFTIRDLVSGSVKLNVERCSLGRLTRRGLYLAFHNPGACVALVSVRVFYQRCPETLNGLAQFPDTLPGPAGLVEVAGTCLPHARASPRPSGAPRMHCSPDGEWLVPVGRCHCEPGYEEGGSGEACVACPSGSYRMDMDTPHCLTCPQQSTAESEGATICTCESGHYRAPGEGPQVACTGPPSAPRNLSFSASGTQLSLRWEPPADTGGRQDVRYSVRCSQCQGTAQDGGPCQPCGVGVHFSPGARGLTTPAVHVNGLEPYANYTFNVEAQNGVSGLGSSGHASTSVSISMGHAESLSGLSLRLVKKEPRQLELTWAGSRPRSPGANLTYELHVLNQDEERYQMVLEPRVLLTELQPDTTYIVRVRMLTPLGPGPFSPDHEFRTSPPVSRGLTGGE

T2: human EphA8 (Homo sapiens, UniProt P29322)
T2 construct: a protein of the extracellular region of each human Eph receptor fused with the SEAP protein and the His tag; made in house; host or cells: Expi293F cells (culture supernatant)
T2 sequence (P29322 28-542 limits assumed): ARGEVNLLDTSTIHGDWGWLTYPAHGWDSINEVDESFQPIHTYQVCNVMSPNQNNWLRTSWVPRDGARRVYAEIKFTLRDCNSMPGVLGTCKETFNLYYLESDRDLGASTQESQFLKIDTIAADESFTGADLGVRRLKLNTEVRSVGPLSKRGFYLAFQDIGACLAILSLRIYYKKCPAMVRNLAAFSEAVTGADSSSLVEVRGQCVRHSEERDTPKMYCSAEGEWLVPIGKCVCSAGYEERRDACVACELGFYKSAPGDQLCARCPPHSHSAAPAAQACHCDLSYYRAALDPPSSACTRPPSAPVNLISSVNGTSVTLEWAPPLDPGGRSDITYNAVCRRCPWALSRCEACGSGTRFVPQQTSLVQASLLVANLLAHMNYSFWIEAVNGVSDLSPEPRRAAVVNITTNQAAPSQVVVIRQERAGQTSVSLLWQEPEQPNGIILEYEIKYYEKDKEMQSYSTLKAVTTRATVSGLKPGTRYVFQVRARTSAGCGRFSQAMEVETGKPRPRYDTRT

T3: human EphB1 (Homo sapiens, UniProt P54762)
T3 construct: a protein of the extracellular region of each human Eph receptor fused with the SEAP protein and the His tag; made in house; host or cells: Expi293F cells (culture supernatant)
T3 sequence (P54762 18-540 limits assumed): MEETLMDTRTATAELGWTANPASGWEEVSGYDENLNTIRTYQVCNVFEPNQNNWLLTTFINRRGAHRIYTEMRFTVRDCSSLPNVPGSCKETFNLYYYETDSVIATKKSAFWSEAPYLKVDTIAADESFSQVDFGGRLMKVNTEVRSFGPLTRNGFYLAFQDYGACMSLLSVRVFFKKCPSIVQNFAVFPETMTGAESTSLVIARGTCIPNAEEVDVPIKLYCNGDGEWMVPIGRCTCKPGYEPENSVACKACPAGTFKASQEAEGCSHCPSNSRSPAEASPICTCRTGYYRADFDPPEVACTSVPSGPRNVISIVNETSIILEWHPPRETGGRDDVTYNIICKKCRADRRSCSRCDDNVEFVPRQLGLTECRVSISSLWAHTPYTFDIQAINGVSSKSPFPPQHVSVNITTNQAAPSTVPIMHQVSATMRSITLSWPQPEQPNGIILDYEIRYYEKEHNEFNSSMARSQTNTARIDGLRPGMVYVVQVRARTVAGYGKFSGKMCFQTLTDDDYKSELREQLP

B1: 94 (antibody, V domains shown)
VL: EIVMTQSPATLSVSPGERATLSCRASENIYRNLAWYQQKPGQSPRLLIYAATNLADGIPARFSGSGSGTEYTLTISSLQSEDFAVYYCQHFWGTPWTFGQGTKVEIK
VH: QVQLVQSGSELKKPGASVKVSCKASGYTFTDYSMHWVRQAPGQGLKWMGWINTETGEPTYAQGFTGRFVFSLDTSVSTAYLQISSLKAEDTAVYYCARIPLYYYGSRYWYFDVWGQGTTVTVSS
modifications: constant regions without entry; synthetic humanized antibody light chain variable region sequence; synthetic humanized antibody heavy chain variable region sequence
B2: 141 (antibody, V domains shown)
VH: B1 VH with K46E, Q62D, G63D, T65K
VL: DIQMTQSPSSLSASVGDRVTITCRASENIYRNLAWYQQKPGKAPKLLVYAATNLADGVPSRFSGSGSGTDYTLTISSLQPEDFATYYCQHFWGTPWTFGQGTKVEIK
modifications: synthetic humanized antibody heavy chain variable region sequence; synthetic humanized antibody light chain variable region sequence
B3: 139 (antibody)
VH: B1 VH with K46E
VL: B2 VL
chain: ASTKGPSVFPLAPSSRSTSESTAALGCLVKDYFPEPVTVSWNSGALTSGVHTFPAVLQSSGLYSLSSVVTVPSSNFGTQTYTCNVDHKPSNTKVDKTVERKSCVECPPCPAPPAAAPSVFLFPPKPKDTLMISRTPEVTCVVVDVSHEDPEVQFNWYVDGVEVHNAKTKPREEQFNSTFRVVSVLTVVHQDWLNGKEYKCKVSNKGLPAPIEKTISKTKGQPREPQVYTLPPSREEMTKNQVSLTCLVKGFYPSDIAVEWESNGQPENNYKTTPPMLDSDGSFFLYSKLTVDKSRWQQGNVFSCSVMHEALHNHYTQKSLSLSPG
modifications: synthetic humanized antibody heavy chain variable region sequence; synthetic humanized antibody light chain variable region sequence; synthetic antibody constant region sequence
B4: 95 (antibody, V domains shown)
VL: B1 VL
VH: B1 VH with K46E, Q62D, G63D, T65K
modifications: constant regions without entry; synthetic humanized antibody light chain variable region sequence; synthetic humanized antibody heavy chain variable region sequence
B5: 73 (antibody, V domains shown)
VH: B1 VH with V2I, Q62D, G63D, T65K
VL: B1 VL
modifications: synthetic humanized antibody heavy chain variable region sequence; synthetic humanized antibody light chain variable region sequence
B6: 140 (antibody, V domains shown)
VH: B1 VH
VL: B2 VL
modifications: synthetic humanized antibody heavy chain variable region sequence; synthetic humanized antibody light chain variable region sequence
B7: 96 (antibody, V domains shown)
VL: B1 VL
VH: B1 VH with Q62D, G63D, T65K
modifications: constant regions without entry; synthetic humanized antibody light chain variable region sequence; synthetic humanized antibody heavy chain variable region sequence
B8: 138 (antibody, V domains shown)
VH: B1 VH with V2I
VL: B2 VL
modifications: synthetic humanized antibody heavy chain variable region sequence; synthetic humanized antibody light chain variable region sequence
B9: 71 (antibody, V domains shown)
VH: B1 VH with V2I
VL: B1 VL
modifications: synthetic humanized antibody heavy chain variable region sequence; synthetic humanized antibody light chain variable region sequence
B10: 143 (antibody, V domains shown)
VH: B1 VH with V2I, Q62D, G63D, T65K
VL: B2 VL
modifications: synthetic humanized antibody heavy chain variable region sequence; synthetic humanized antibody light chain variable region sequence
B11: 142 (antibody, V domains shown)
VH: B1 VH with Q62D, G63D, T65K
VL: B2 VL
modifications: synthetic humanized antibody heavy chain variable region sequence; synthetic humanized antibody light chain variable region sequence

molecular target: T1, human EphA1; assay: Selectivity ELISA of humanized antibodies for human Eph receptor; assay type: binding; settings: coated protein 1 nM
Outline: (§1)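 His-tagged SEAP fusions of each human Eph receptor extracellular region, from Expi293F supernatants, were captured at 1 nM on anti-His-coated wells. Humanized antibody was bound 1 h at room temperature, then detected with HRP […] IgG. TMB development was acid-stopped and read at 450 nm.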

hEphA1-SEAP-: absorbance at 450 nm, percentage with respect to hEphA4-SEAP-His as 100% [%] | Molecule
6.5 | B1
5.3 | B2
5.7 | B3
4.5 | B4
6.0 | B5
5.5 | B6
5.6 | B7
5.2 | B8
5.6 | B9
6.0 | B10
5.6 | B11

molecular target: T2, human EphA8; assay: as above; assay type: binding; settings: coated protein 1 nM
Outline: as §1

hEphA8-SEAP-: absorbance at 450 nm, percentage with respect to hEphA4-SEAP-His as 100% [%] | Molecule
7.0 | B1
5.5 | B2
6.0 | B3
4.4 | B4
5.8 | B5
5.4 | B6
5.4 | B7
5.4 | B8
5.3 | B9
6.0 | B10
5.7 | B11

molecular target: T3, human EphB1; assay: as above; assay type: binding; settings: coated protein 1 nM
Outline: as §1

hEphB1-SEAP-: absorbance at 450 nm, percentage with respect to hEphA4-SEAP-His as 100% [%] | Molecule
6.7 | B1
5.4 | B2
5.5 | B3
4.6 | B4
5.7 | B5
5.3 | B6
5.6 | B7
5.1 | B8
5.4 | B9
5.9 | B10
5.6 | B11
